Experimental data as given in patent publication US20210179710A1, “COMBINATION IMMUNOTHERAPY AND CHEMOTHERAPY FOR THE TREATMENT OF A HEMATOLOGICAL MALIGNANCY” (Actinium Pharmaceuticals, Inc., priority 2018, published 2021).
Like-named read-outs stand apart in the source and are kept apart here.

Experiments:
[1] = tested on: relapsed or refractory AML and CML; settings: cited from earlier work
[2] = biological target: T1, CD33 (Homo sapiens, UniProt P20138); settings: higher than M195; cited from earlier work
[3] = biological target: T1, CD33; settings: human peripheral blood mononuclear cells as effectors, cited from earlier work
[4] = tested on: peripheral blood and bone marrow cells; experiment: Reactivity with peripheral blood and bone marrow cells from frozen tissues; format: binding; settings: nonhuman primate and human frozen tissues
[5] = tested on: AML; experiment: Phase 1 clinical trial, fractionated doses combined with low dose Ara-C (LDAC); format: in vivo, human; settings: fractionated doses on days 1 and 8 combined with LDAC
Excerpt: (§1) Preliminary data are available on 9 with median age 75 years (range, 65-82) and PS median 2 (0-1 in 2 patients, […], & 3 in 2 patients). Six (67%) had prior treatment for AHDs (5 MDS, 1 atypical CML). At baseline, 5 patients had ANC≥500/μL, only 2 had ANC≥1000/μL, and only 1 had platelets >50,000/μL.

[6] = tested on: AML; experiment: Phase 2 portion, monotherapy without LDAC in AML patients unfit for cytotoxic chemotherapy; format: in vivo, human
Excerpt: as §1
The 30-day mortality rate was 33% (disease progression, acute on chronic respiratory failure, and post-traumatic intracranial hemorrhage after a fall).
Objective responses were documented in 5 of the 9 patients (56%): 2 Complete Remissions with incomplete platelet count recovery (CRp) and 3 Complete Remissions with incomplete hematologic recovery (CRi). Two patients had resistant disease.
The two patients with CRp had neutrophil recovery at Days 60 and 36. Two of the patients with CRi had not reached ANC≥500/μL when they expired from infection on days 65 and 56, and the third is at day 66+ without ANC recovery. Since patients with antecedent hematologic disorders (AHDs) may not have capacity to recover to normal neutrophil production, patients without AHDs may be more informative. Of the 3 patients without AHDs, 1 had ANC recovery at Day 36, 1 had death from infection at Day 56 without ANC recovery, and 1 is pending ANC recovery at Day 66+. […]

[7] = tested on: HL60 (leukemia cells); experiment: Cytotoxicity against HL60 cell suspensions; format: cell-based
[8] = tested on: relapsed/refractory AML; experiment: Dose escalation (MTD) in patients with relapsed/refractory AML; format: in vivo, human
Method: A maximum tolerated dose (MTD) of a single injection of the radiolabeled lintuzumab was determined to be 3 uCi/kg patient weight. As a split dose (e.g., 2 equal doses administered 4-7 days apart), the MTD was determined to be 2 uCi/kg per dose, or 4 uCi/kg total. […] Determination of MTD was based on the severity of the adverse effects observed at each dose level. Anti-leukemic effects included elimination of peripheral blood blasts in 13 of 19 evaluable patients. Twelve of 18 patients who were evaluable at 4 weeks following treatment had reductions in bone marrow blasts, including nine with reductions ≥50%. Three patients treated with 1 uCi/kg, 3 uCi/kg and 4 uCi/kg respectively had ≤5% blasts after therapy.

[9] = four clinical trials, native HuM195 alone
[10] = 2 μCi/kg/fraction monotherapy, preliminary
[11] = 2 equal doses administered 4-7 days apart

T1 sequence (P20138 18-364): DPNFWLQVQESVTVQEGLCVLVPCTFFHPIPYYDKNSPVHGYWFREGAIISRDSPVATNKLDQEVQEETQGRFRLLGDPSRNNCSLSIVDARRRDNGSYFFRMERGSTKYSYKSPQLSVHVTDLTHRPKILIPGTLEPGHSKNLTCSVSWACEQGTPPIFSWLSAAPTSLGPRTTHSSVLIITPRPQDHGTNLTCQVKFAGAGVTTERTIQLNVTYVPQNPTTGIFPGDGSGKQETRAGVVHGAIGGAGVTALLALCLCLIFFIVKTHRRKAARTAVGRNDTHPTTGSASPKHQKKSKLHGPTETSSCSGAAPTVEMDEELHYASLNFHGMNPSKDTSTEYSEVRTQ

## HuM195: recombinant humanized anti-CD33 monoclonal antibody
[1]; even at supra-saturating doses that fully blocked CD33 binding sites throughout a 4-week period
  single agent activity in AML: very modest activity
[1]; [9]
  human anti-human antibody responses: not seen
  most common toxicities: Fever, chills, and nausea
  reduction in marrow blast cells: seen in some patients
[2]
  binding avidity relative to M195: greater than 8 fold
[3]
  antibody-dependent cell-mediated cytotoxicity (ADCC): induced antibody-dependent cell-mediated cytotoxicity
[3]; listed as lintuzumab
  antibody-dependent cell-mediated cytotoxicity (ADCC): demonstrated antibody-dependent cell-mediated cytotoxicity

## lintuzumab-Ac^225: Lintuzumab conjugated with Actinium-225 (Ac^225)
[4]
  reactivity with peripheral blood and bone marrow cells (specificity): reactivity with mononuclear cells only
[5]
  dose at which treatment induced remissions: above 0.5 uCi/kg/fraction
[6]; 2 μCi/kg/fraction
  30-day mortality rate: 33%
  Grade >3 non-hematologic toxicities reported in ≥1 pt: pneumonia and cellulitis
  platelet counts >20,000/μL without transfusions: No patients reached platelet counts >20,000/μL without transfusions
  veno-occlusive disease: did not occur
[6]; [10]
  objective response rate: 56%
  objective responses (patients): 5 of the 9
[6]; 2 μCi/kg/fraction, days 1 and 8, preliminary data on 9 patients
  myelosuppression: seen in all evaluable patients
[6]; 2 μCi/kg/fraction, preliminary data on 9 patients
  grade 4 thrombocytopenia with marrow aplasia for >6 weeks following therapy: 3 patients
[6]; from the first dose, range 20-60
  median time to neutrophil recovery (ANC≥500/μL): 36 days
[6]; of 9 patients
  Complete Remissions with incomplete hematologic recovery (CRi): 3
  Complete Remissions with incomplete platelet count recovery (CRp): 2
  patients with resistant disease: Two
[7]
  dose at which 50% of the cells were killed (LD50): 8 μCi per mL of cell suspension
[8]; 0.5 uCi/kg to 4 uCi/kg
  elimination of peripheral blood blasts: 13 of 19
[8]; [11]
  MTD, split dose, per dose: 2 uCi/kg per dose
  MTD, split dose, total: 4 uCi/kg total
[8]; of 18 evaluable at 4 weeks
  patients with reductions in bone marrow blasts ≥50%: nine
[8]; single injection
  maximum tolerated dose (MTD), single injection: 3 uCi/kg patient weight
[8]; treated with 1 uCi/kg, 3 uCi/kg and 4 uCi/kg respectively
  patients with ≤5% blasts after therapy: Three
